Data reported in PMC11810782.

Biological target: GFP–TGN46 (UniProt O43493)
Test: single-molecule GFP step-photobleaching by TIRF (NativeNanoBleach); ChloroSMA60-extracted total membrane of cells expressing GFP–TGN46 passed over glass slides with streptavidin and biotinylated GFP nanobody; discs captured and GFP bleaching steps counted; 1,000–1,500 particles for each biological replicate, corrected for GFP maturation efficiency

GFP–TGN46, O43493 22-437 (natural protein; other documents disagree on this pair), sequence (O43493 22-437): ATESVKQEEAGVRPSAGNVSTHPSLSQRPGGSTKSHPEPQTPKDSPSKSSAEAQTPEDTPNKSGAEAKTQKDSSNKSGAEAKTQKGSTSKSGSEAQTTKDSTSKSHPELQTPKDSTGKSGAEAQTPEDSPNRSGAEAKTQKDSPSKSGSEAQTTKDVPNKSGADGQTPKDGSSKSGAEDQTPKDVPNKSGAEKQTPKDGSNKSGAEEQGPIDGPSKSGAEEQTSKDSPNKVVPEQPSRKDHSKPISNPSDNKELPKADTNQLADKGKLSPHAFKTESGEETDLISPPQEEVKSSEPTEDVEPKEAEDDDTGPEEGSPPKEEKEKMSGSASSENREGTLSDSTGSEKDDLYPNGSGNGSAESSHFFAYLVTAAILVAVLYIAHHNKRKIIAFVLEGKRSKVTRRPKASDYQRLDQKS

stoichiometry N: 1 to 4
Substance: GFP–TGN46, O43493 22-437 (natural protein; other documents disagree on this pair)
